The test system of this assay is Jurkat cells. In words: Tacrolimus dose response of FKBP13-AcGFP-mCherry constructs stably transduced into Jurkat cells, GFP MFI by flow cytometry. The class given is cell-based. As to conditions: tacrolimus; for Fold Change: Jurkat cells, Table 13. An outline of the steps:
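GFP geometric MFI was read by flow cytometry in mCherry+ cells and curve-fitted against tacrolimus dose. Cells were Jurkat E6-1, lentivirus-transduced with FKBP13-AcGFP-mCherry fusion constructs until 10-25% mCherry-positive on day 5 post-transduction.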
For orientation: In flow cytometry, cells or beads pass a laser one at a time.

B1: FKBP-276: FKBP13 DRD-AcGFP construct of Table 10 (protein)
chain: HCPIKSRKGDVLHMHYTGKLEDGTEFDSSLPRNRPFVFSLGTGERIKGWDQGLLGMCEGEKRKLVIPSELGYGERGWPPKIPGGATLVFEVELLKIER
modifications: Description of sequence: Construct Name: FKBP-276; Mutation(s): Q72R Q74R Q84E A117W V85R
As to B1, the “Fold Change” value turned out to be 7.54. Besides, for the setting “FIG. 35”, the FC is given as 7.54 and the Peak is recorded as 2859.

B2: FKBP-290: FKBP13 DRD-AcGFP construct of Table 10 (protein)
chain: HCPIKSRKGDVLHMHYTGKLEDGTEFDSSLPRNQPFVFSLGTGERIKGWDQGLLGMCEGEKRKLVIPSELGYGERGWPPIIPGGATLVFFVELLKIER
modifications: Description of sequence: Construct Name: FKBP-290; Mutation(s): Q72R Q84E A117W V85R K120I E130F
In the case of B2, the “Fold Change” value is 92.89. Under “FIG. 38”, this molecule returned an FC of 92.89 and a Peak of 3191.

B3: FKBP-288: FKBP13 DRD-AcGFP construct of Table 10 (protein)
chain: HCPIKSRKGDVLHMHYTGKLEDGTEFDSSLPRNQPFVFSLGTGERIKGWDQGLLGMCEGEKRKLVIPSELGYGERGWPPIIPGGATLVFEVELLKIER
modifications: Description of sequence: Construct Name: FKBP-288; Mutation(s): Q72R Q84E A117W V85R K120I
Turning to B3, the “Fold Change” value came out at 30.1. Under “FIG. 38”, this molecule registered an FC of 30.10 and a Peak of 3718.

B4: FKBP-287: FKBP13 DRD-AcGFP construct of Table 10 (protein)
chain: HCPIKSRKGDVLHMHYTGKLEDGTEFDSSLPRNWPFVFSLGTGERIKGWDQGLLGMCEGEKRKLVIPSELGYGERGWPPIIPGGATLVFFVELLKIER
modifications: Description of sequence: Construct Name: FKBP-287; Mutation(s): Q72R Q74W Q84E A117W V85R E130F K120I
As for B4, the “Fold Change” value is listed as 47.09. For the setting “FIG. 37”, this molecule registered an FC of 47.09 and a Peak of 1747.

B5: FKBP-277: FKBP13 DRD-AcGFP construct of Table 10 (protein)
chain: HCPIKSRKGDVLHMHYTGKLEDGTEFDSSLPRNRPFVFSLGTGERIKGWDQGLLGMCEGEKRKLVIPSELGYGERGWPPKIPGGATLVFEVELLYIER
modifications: Description of sequence: Construct Name: FKBP-277; Mutation(s): Q72R Q74R Q84E A117W V85R K135Y
As for B5, the “Fold Change” value was determined as 61.04. Under “FIG. 35”, this molecule gave an FC of 61.04 and a Peak of 2581.

B6: FKBP-278: FKBP13 DRD-AcGFP construct of Table 10 (protein)
chain: HCPIKSRKGDVLHMHYTGKLEDGTEFDSSLPRNRPFVFSLGTGERIKGWDQGLLGMCEGEKRKLVIPSELGYGERGWPPKIPGGATLVFFVELLKIER
modifications: Description of sequence: Construct Name: FKBP-278; Mutation(s): Q72R Q74R Q84E A117W V85R E130F
With B6, the “Fold Change” value is 92.73. In addition, under “FIG. 35”, the FC turned out to be 92.73 and the Peak was found to be 3425.

B7: FKBP-284: FKBP13 DRD-AcGFP construct of Table 10 (protein)
chain: HCPIKSRKGDVLHMHYTGKLEDGTEFDSSLPRNWPFVFSLGTGERIKGWDQGLLGMCEGEKRKLVIPSELGYGERGWPPKIPGGATLVFFVELLKIER
modifications: Description of sequence: Construct Name: FKBP-284; Mutation(s): Q72R Q74W Q84E A117W V85R E130F
Regarding B7, the “Fold Change” value came to 58.23. For the setting “FIG. 37”, this molecule registered an FC of 58.23 and a Peak of 2441.

B8: FKBP-279: FKBP13 DRD-AcGFP construct of Table 10 (protein)
chain: HCPIKSRKGDVLHMHYTGKLEDGTEFDSSLPRNRPFVFSLGTGERIKGWDQGLLGMCEGEKRKLVIPSELGYGERGWPPIIPGGATLVFEVELLKIER
modifications: Description of sequence: Construct Name: FKBP-279; Mutation(s): Q72R Q74R Q84E A117W V85R K120I
On to B8, for which the “Fold Change” value came to 31.33. For the setting “FIG. 35”, this molecule yielded an FC of 31.33 and a Peak of 3302.

B9: FKBP-283: FKBP13 DRD-AcGFP construct of Table 10 (protein)
chain: HCPIKSRKGDVLHMHYTGKLEDGTEFDSSLPRNWPFVFSLGTGERIKGWDQGLLGMCEGEKRKLVIPSELGYGERGWPPKIPGGATLVFEVELLYIER
modifications: Description of sequence: Construct Name: FKBP-283; Mutation(s): Q72R Q74W Q84E A117W V85R K135Y
Regarding B9, the “Fold Change” value was found to be 39.79. Moreover, under “FIG. 36”, the FC is 39.79 and the Peak was determined as 1328.

B10: FKBP-289: FKBP13 DRD-AcGFP construct of Table 10 (protein)
chain: HCPIKSRKGDVLHMHYTGKLEDGTEFDSSLPRNQPFVFSLGTGERIKGWDQGLLGMCEGEKRKLVIPSELGYGERGWPPIIPGGATLVFEVELLYIER
modifications: Description of sequence: Construct Name: FKBP-289; Mutation(s): Q72R Q84E A117W V85R K120I K135Y
For B10, the “Fold Change” value worked out at 73.38. Where the note is “FIG. 38”, this molecule yielded an FC of 73.38 and a Peak of 2659.

B11: FKBP-292: FKBP13 DRD-AcGFP construct of Table 10 (protein)
chain: HCPIKSRKGDVLHMHYTGKLEDGTEFDSSLPRNQPFVFSLGTGERIKGWDQGLLGMCEGEKRKLVIPSELGYGERGWPPKIPGGATLVFEVELLQIER
modifications: Description of sequence: Construct Name: FKBP-292; Mutation(s): Q72R Q84E A117W V85R K135Q
Take B11: the “Fold Change” value is 50.68. Moreover, where the note is “FIG. 38”, the FC was determined as 50.68 and the Peak turned out to be 3797.

B12: FKBP-286: FKBP13 DRD-AcGFP construct of Table 10 (protein)
chain: HCPIKSRKGDVLHMHYTGKLEDGTEFDSSLPRNWPFVFSLGTGERIKGWDQGLLGMCEGEKRKLVIPSELGYGERGWPPIIPGGATLVFEVELLYIER
modifications: Description of sequence: Construct Name: FKBP-286; Mutation(s): Q72R Q74W Q84E A117W V85R K135Y K120I
On to B12, for which the “Fold Change” value turned out to be 25.96. In addition, where the note is “FIG. 37”, the FC is 25.96 and the Peak is 1089.

B13: FKBP-291: FKBP13 DRD-AcGFP construct of Table 10 (protein)
chain: HCPIKSRKGDVLHMHYTGKLEDGTEFDSSLPRNQPFVFSLGTGERIKGWDQGLLGMCEGEKRKLVIPSELGYGERGWPPKIPGGATLVFNVELLKIER
modifications: Description of sequence: Construct Name: FKBP-291; Mutation(s): Q72R Q84E A117W V85R E130N
In the case of B13, the “Fold Change” value came out at 53.37. Further, where the note is “FIG. 38”, the FC amounted to 53.37 and the Peak is 3859.

B14: FKBP-285: FKBP13 DRD-AcGFP construct of Table 10 (protein)
chain: HCPIKSRKGDVLHMHYTGKLEDGTEFDSSLPRNWPFVFSLGTGERIKGWDQGLLGMCEGEKRKLVIPSELGYGERGWPPIIPGGATLVFEVELLKIER
modifications: Description of sequence: Construct Name: FKBP-285; Mutation(s): Q72R Q74W Q84E A117W V85R K120I
For B14, the “Fold Change” value worked out at 36.71. Under “FIG. 37”, this molecule yielded an FC of 36.71 and a Peak of 2161.

B15: FKBP-281: FKBP13 DRD-AcGFP construct of Table 10 (protein)
chain: HCPIKSRKGDVLHMHYTGKLEDGTEFDSSLPRNRPFVFSLGTGERIKGWDQGLLGMCEGEKRKLVIPSELGYGERGWPPIIPGGATLVFFVELLKIER
modifications: Description of sequence: Construct Name: FKBP-281; Mutation(s): Q72R Q74R Q84E A117W V85R E130F K120I
For B15, the “Fold Change” value stood at 77.66. Besides, for the setting “FIG. 36”, the FC came out at 77.66 and the Peak is 2905.

B16: FKBP-282: FKBP13 DRD-AcGFP construct of Table 10 (protein)
chain: HCPIKSRKGDVLHMHYTGKLEDGTEFDSSLPRNWPFVFSLGTGERIKGWDQGLLGMCEGEKRKLVIPSELGYGERGWPPKIPGGATLVFEVELLKIER
modifications: Description of sequence: Construct Name: FKBP-282; Mutation(s): Q72R Q74W Q84E A117W V85R
With B16, the “Fold Change” value came to 39.54. For the setting “FIG. 36”, this molecule gave an FC of 39.54 and a Peak of 2473.

B17: FKBP-280: FKBP13 DRD-AcGFP construct of Table 10 (protein)
chain: HCPIKSRKGDVLHMHYTGKLEDGTEFDSSLPRNRPFVFSLGTGERIKGWDQGLLGMCEGEKRKLVIPSELGYGERGWPPIIPGGATLVFEVELLYIER
modifications: Description of sequence: Construct Name: FKBP-280; Mutation(s): Q72R Q74R Q84E A117W V85R K135Y K120I
As for B17, the “Fold Change” value came to 68.34. Further, for the setting “FIG. 36”, the FC was found to be 68.34 and the Peak is reported as 2468.
